B1: bovine papillomavirus type 1 (BPV1) L2 minor capsid protein (other)
chain: MSARKRVKRASAYDLYRTCKQAGTCPPDVIPKVEGDTIADKILKFGGLAIYLGGLGIGTWSTGRVAAGGSPRYTPLRTAGSTSSLASIGSRAVTAGTRPSIGAGIPLDTLETLGALRPGVYEDTVLPEAPAIVTPDAVPADSGLDALSIGTDSSTETLITLLEPEGPEDIAVLELQPLDRPTWQVSNAVHQSSAYHAPLQLQSSIAETSGLENIFVGGSGLGDTGGENIELTYFGSPRTSTPRSIASKSRGILNWFSKRYYTQVPTEDPEVFSSQTFANPLYEAEPAVLKGPSGRVGLSQVYKPDTLTTRSGTEVGPQLHVRYSLSTIHEDVEAIPYTVDENTQGLAFVPLHEEQAGFEEIELDDFSETHRLLPQNTSSTPVGSGVRRSLIPTQEFSATRPTGVVTYGSPDTYSASPVTDPDSTSPSLVIDDTTTTPIIIIDGHTVDLYSSNYTLHPSLLRKRKKRKHA
notes: mature; Expressed from recombinant Semliki Forest virus in BHK-21 or BPHE-1 cells; also called BPV L2

Assay [1] has as its target T1, bovine papillomavirus type 1 (BPV1) L1 major capsid protein (bovine papillomavirus type 1 (BPV1), UniProt P03103 1-495).
T1 construct: mature; Expressed from recombinant Semliki Forest virus in BHK-21 or BPHE-1 cells; self-assembles into VLPs; also called BPV L1
Put plainly: co-expression from recombinant SFV in BHK-21 cells; heading of the section.

In assay [2] the target is B1. Description: coimmunoprecipitation; cosedimentation in sucrose gradients.

For B1, the binding result in assay [1] is recorded as “binds”.

B2: BPV E2 protein (full-length 48 kD form) (other)
chain: METACERLHVAQETQMQLIEKSSDKLQDHILYWTAVRTENTLLYAARKKGVTVLGHCRVPHSVVCQERAKQAIEMQLSLQELSKTEFGDEPWSLLDTSWDRYMSEPKRCFKKGARVVEVEFDGNASNTNWYTVYSNLYMRTEDGWQLAKAGADGTGLYYCTMAGAGRIYYSRFGDEAARFSTTGHYSVRDQDRVYAGVSSTSSDFRDRPDGVWVASEGPEGDPAGKEAEPAQPVSSLLGSPACGPIRAGLGWVRDGPRSHPYNFPAGSGGSILRSSSTPVQGTVPVDLASRQEEEEQSPDSTEEEPVTLPRRTTNDGFHLLKAGGSCFALISGTANQVKCYRFRVKKNHRHRYENCTTTWFTVADNGAERQGQAQILITFGSPSQRQDFLKHVPLPPGMNISGFTASLDF
notes: mature; BPHE-1 cells express three forms of E2; SFV-E2 gives only the 48 kD form
With B2, the binding result in assay [2] is “no binding”.

(Values after patent publication US20030207446A1 (US Dept. of Health and Human Services, published 2003).)
